This is an account of results in patent US20220411525A1, “BCMA AS A TARGET FOR T CELL REDIRECTING ANTIBODIES IN B CELL LYMPHOMAS” (Janssen Pharmaceutica NV, priority 2021, published 2022).

In the assay the target is B cell maturation antigen (BCMA) (human) (UniProt Q02223). In words: cell-based or functional assay.
B cell maturation antigen (BCMA) (human), sequence (Q02223 whole entry): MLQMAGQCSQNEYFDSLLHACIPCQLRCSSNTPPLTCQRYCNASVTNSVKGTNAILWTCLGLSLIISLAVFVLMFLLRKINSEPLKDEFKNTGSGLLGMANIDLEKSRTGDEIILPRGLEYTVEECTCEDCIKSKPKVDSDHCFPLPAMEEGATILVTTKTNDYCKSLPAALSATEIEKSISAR

In the case of “BCMAxCD3 DuoBody Teclistamab (JNJ-64007957) (bispecific antibody)”, the average cell death of primary CLL cells, HD PBMCs 10:1 E:T, 96 h, 100 ng/mL, no γ-secretase inhibitor (first T cell donor) turned out to be 15.8%; the average cell death of primary CLL cells, HD PBMCs 10:1 E:T, 96 h, 100 ng/mL, no γ-secretase inhibitor (second T cell donor) is 20%; the average cell death of primary CLL cells, HD PBMCs 10:1 E:T, 96 h, 100 ng/mL, with 100 nM γ-secretase inhibitor (first T cell donor) came to 25.8%; the average cell death of primary CLL cells, HD PBMCs 10:1 E:T, 96 h, 100 ng/mL, with 100 nM γ-secretase inhibitor (second T cell donor) was determined as 27.4%. Further, the average lysis of primary CLL cells, HD PBMCs 10:1 E:T, 48 h, 100 ng/mL, no γ-secretase inhibitor (first T cell donor) came out at 12.9%; the average lysis of primary CLL cells, HD PBMCs 10:1 E:T, 48 h, 100 ng/mL, no γ-secretase inhibitor (second T cell donor) worked out at 16.4%; the average lysis of primary CLL cells, HD PBMCs 10:1 E:T, 48 h, 100 ng/mL, with 100 nM γ-secretase inhibitor (first T cell donor) stood at 14.9%; the average lysis of primary CLL cells, HD PBMCs 10:1 E:T, 48 h, 100 ng/mL, with 100 nM γ-secretase inhibitor (second T cell donor) is 21.6%. Further, the lysis of primary CLL cells by HD CD8+ T cells, 5:1 E:T, 96 h, 100 ng/mL is < 60% and the mean lysis of primary CLL cells by autologous CLL derived T cells, 5:1 E:T, 96 h, 100 ng/mL was found to be 40%.
